In patent US20200291071A1:
Each block holds one molecule with its values, some of them ahead of it.

Assays:
[1] = target: r6,Glm-Tei-pseudoaglycone (compound 12); test: ITC
[2] = target: r6,Glm-Tei-pseudoaglycone (compound 12); test: ITC (isothermal titration calorimetry), exothermic injections, sigmoidal isotherm over molar ratio about 0.45 to 1.85
[3] = target: r4,Glm-Tei-pseudoaglycone (compound 6)
[4] = target: r6,Glm-Tei-pseudoaglycone (compound 12)

- Kd [1]: 5 µM
- Kd [2]: 5.1 µM
Molecule: Dbv27 (methyltransferase encoded by gene dbv27) (enzyme)

B1: Orf11*S (acyltransferase, single mutant W163A of Orf11*) (protein)
chain: MGSSHHHHHHSSGLVPRGSHMMMDPETVRIALGLEERTAAWLTELDELGPPAEPVRLPRGEEARDLLRRLEVPELDAEEIVAAAPDPDRDPALWWLLERTHHAIVRHMGDHRAKPRGGPPLPYEGGAAARYFHVYVFLATVPAVRRFHAERGIPDEVGWETLTQLGELVAIHRRKYGQGGMNMQAWTTYHLRGILYRLGRLQFSLATGKDGTPHLGLHVPEWGGPLLPKAYDESLHRARPFFDRHFPEHGARVAWGSSWMLDPQLEEYLTEDSNIIQLARFWTLTDSAPEPGNADGDSSILEFVFRYNGQPLDELPQRSSLERAVIAHLKAGRHWHMRTGFVKLP
- Km (acyl-transfer kinetics, HPLC) [3]: Km=0.07 mM
- Km (acyl-transfer kinetics, HPLC) [4]: Km=0.3±0.03 mM
